Reference: patent US20170088632A1 (OMEROS, published 2017)
Several values for one entry are separate records, joined by “and”; a condition that tells them apart may be missing. Equal values may be shown once. Values belong to the binder of their own block, whether it stands above or below them.

How the values were obtained:
human MASP-2 [1] = biological target: T1, human MASP-2 (human, UniProt O00187 16-686); experiment: selectivity for human MASP-2 over C1s (method not detailed; see FIG. 16)
T1 construct: also called hMASP-2; recombinant human MASP-2

human MASP-2 [2] = biological target: T1, human MASP-2; experiment: cell-based or functional assay
[3] = biological target: T2, African Green monkey MASP-2 (in African Green monkey serum) (African Green monkey); experiment: cell-based or functional assay
[4] = biological target: T3, rat MASP-2 (in rat serum) (rat, UniProt Q9JJS8 20-685); experiment: cell-based or functional assay
human MASP-2 [5] = biological target: T1, human MASP-2; experiment: cell-based or functional assay; remark: listed apart in the source
[6] = biological target: T2, African Green monkey MASP-2 (in African …); experiment: cell-based or functional assay; remark: listed apart in the source
[7] = biological target: T3, rat MASP-2 (in rat serum); experiment: cell-based or functional assay; remark: listed apart in the source
human MASP-2 [8] = biological target: T1, human MASP-2; experiment: cell-based or functional assay; remark: listed apart in the source
[9] = biological target: T2, African Green monkey MASP-2 (in African …); experiment: cell-based or functional assay; remark: listed apart in the source
human MASP-2 [10] = biological target: T1, human MASP-2; experiment: titration ELISA on MASP-2 (10 µg/ml)
human MASP-2 [11] = biological target: T1, human MASP-2; experiment: cell-based or functional assay; remark: listed apart in the source
human MASP-2 [12] = biological target: T1, human MASP-2; experiment: cell-based or functional assay; remark: listed apart in the source
human MASP-2 [13] = biological target: T1, human MASP-2; experiment: cell-based or functional assay; remark: listed apart in the source
[14] = biological target: T4, human MASP-2A (catalytically inactive human MASP-2, Ser618 to Ala618) (human, UniProt O00187 16-686); experiment: ELISA, purified scFv titrated on physically adsorbed human MASP-2A
T4 construct: the ELISA and Biacore methods say only 'MASP-2A', so a tag may have been present; also called huMASP2A; huMASP-2A

[15] = biological target: T4, human MASP-2A (catalytically inactive …); experiment: SPR (Biacore), scFv captured by anti-cMyc antibody, MASP-2A in solution
[16] = biological target: T4, human MASP-2A (catalytically inactive …); experiment: SPR (Biacore), MASP-2A amine coupled to CM5 chip, scFv monomer in solution
[17] = biological target: T4, human MASP-2A (catalytically inactive …); experiment: titration ELISA on coated human MASP-2A ('Binding affinity'), IgG4 mutated format
Experimental: (§1) The clones were then purified and re-tested in an ELISA and activity assay as follows. Human MASP-2A was coated at 3 μg/ml in PBS on a maxisorp plate, IgG (45 μg/ml) and Fab′2 (30 μg/ml) were diluted in PBS-Tween to a starting concentration of 300 nM, and further with 3-fold dilutions. IgGs were detected with HRP conjugated Goat α-Human IgG (Southern Biotech) and the F(ab′)2 were detected with HRP-conjugated Goat α-Human IgG H+L (Pierce 31412). The reaction was developed with TMB substrate and stopped with 2M H₂SO₄.

human MASP-2 [18] = biological target: T1, human MASP-2; experiment: cell-based or functional assay; remark: listed apart in the source
human MASP-2 [19] = biological target: T1, human MASP-2; experiment: cell-based or functional assay; remark: listed apart in the source
[20] = biological target: T4, human MASP-2A (catalytically inactive …); experiment: titration ELISA on coated human MASP-2A ('Binding affinity'), F(ab′)2
Experimental: as §1

T4 sequence (O00187 16-686 S633A): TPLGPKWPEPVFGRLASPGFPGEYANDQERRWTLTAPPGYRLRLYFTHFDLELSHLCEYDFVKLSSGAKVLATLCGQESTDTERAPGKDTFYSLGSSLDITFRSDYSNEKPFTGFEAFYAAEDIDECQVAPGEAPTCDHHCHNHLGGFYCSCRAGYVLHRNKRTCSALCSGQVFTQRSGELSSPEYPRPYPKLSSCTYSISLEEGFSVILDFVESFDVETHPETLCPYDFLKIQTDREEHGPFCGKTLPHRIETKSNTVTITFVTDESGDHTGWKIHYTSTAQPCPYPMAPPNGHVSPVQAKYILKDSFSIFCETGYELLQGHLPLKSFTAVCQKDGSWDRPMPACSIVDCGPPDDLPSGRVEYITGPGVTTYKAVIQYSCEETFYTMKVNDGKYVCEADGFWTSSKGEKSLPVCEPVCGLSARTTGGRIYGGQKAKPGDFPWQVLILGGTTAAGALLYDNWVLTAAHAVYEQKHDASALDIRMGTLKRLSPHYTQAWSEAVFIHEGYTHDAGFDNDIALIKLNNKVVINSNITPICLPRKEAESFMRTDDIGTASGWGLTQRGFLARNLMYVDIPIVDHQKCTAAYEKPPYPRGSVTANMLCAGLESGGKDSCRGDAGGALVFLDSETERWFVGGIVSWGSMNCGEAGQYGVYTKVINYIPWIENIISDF
T1 sequence (O00187 16-686): as the sequence (O00187 16-686 S633A) above, with A618S counted along it
T3 sequence (Q9JJS8 other isoform, or with tags, fused parts or gaps limits assumed): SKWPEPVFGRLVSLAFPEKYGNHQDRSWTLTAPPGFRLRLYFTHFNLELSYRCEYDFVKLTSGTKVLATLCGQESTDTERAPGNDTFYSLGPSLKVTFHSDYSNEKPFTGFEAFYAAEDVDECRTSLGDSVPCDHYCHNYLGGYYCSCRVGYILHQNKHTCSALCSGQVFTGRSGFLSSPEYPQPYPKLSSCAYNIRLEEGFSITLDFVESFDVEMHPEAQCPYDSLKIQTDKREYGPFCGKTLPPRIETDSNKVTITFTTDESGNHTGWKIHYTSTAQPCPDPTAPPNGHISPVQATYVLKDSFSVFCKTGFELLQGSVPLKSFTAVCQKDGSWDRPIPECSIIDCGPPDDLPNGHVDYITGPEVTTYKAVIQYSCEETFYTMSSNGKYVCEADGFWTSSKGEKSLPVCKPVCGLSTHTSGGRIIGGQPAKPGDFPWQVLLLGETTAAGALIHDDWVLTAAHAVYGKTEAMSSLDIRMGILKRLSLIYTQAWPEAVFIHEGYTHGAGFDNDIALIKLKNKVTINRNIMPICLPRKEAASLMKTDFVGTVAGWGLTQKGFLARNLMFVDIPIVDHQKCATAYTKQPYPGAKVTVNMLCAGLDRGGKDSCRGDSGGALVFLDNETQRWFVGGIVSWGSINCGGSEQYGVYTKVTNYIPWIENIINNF

B1: MoAb #2 (OMS642), 17N16m_d17N9 IgG4 (antibody)
heavy: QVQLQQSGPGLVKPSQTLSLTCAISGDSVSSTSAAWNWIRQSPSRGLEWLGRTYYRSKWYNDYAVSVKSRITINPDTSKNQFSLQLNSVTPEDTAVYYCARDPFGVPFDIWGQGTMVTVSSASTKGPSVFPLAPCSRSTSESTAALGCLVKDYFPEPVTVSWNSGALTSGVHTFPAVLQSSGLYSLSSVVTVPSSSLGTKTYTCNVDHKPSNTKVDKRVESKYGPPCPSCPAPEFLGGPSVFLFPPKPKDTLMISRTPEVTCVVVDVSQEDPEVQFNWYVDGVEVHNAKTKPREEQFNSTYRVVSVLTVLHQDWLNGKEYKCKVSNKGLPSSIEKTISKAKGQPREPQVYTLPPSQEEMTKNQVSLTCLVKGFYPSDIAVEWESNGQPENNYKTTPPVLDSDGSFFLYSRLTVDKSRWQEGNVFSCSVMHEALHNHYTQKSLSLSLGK
light: SYELIQPPSVSVAPGQTATITCAGDNLGKKRVHWYQQRPGQAPVLVIYDDSDRPSGIPDRFSASNSGNTATLTITRGEAGDEADYYCQVWDIATDHVVFGGGTKLTVLGQPKAAPSVTLFPPSSEELQANKATLVCLISDFYPGAVTVAWKADSSPVKAGVETTTPSKQSNNKYAASSYLSLTPEQWKSHRSYSCQVTHEGSTVEKTVAPTECS
notes: also called MoAb#2 (IgG4)
Selectivity over C1s (human MASP-2 [1]): > 5000 fold
Human C3 Assay IC50, 90% human serum (human MASP-2 [2]): 3 nM
Human C4 assay IC50, 90% human serum (human MASP-2 [2]): 30 nM
African Green Monkey C3 assay IC50 [3]: 26 nM
Inhibition of Rat C3b IC50 [4]: 100 nM

B5: 17D20 mother clone, F(ab′)2 format (Fab, V domains shown)
VH: QVTLKESGPVLVKPTETLTLTCTVSGFSLSRGKMGVSWIRQPPGKALEWLAHIFSSDEKSYRTSLKSRLTISKDTSKNQVVLTMTNMDPVDTATYYCARIRAGGIDYWGQGTLVTVSS
VL: QPVLTQPPSVSVSPGQTASITCSGDKLGDKFAYWYQQKPGHSPVLVIYQDNKRPSGIPGRFSGSNSGNTATLTISGTQAMDEADYYCQAWDSSTAVFGTGTKVTVLA
notes: also called 17D20 F(ab′)2
C3 convertase assay using 1% human serum, IC50 (first experiment) (human MASP-2 [13]): 7.3 nM
C3 convertase assay using 1% human serum, IC50 (second experiment) (human MASP-2 [13]): 13.5 nM
Kd [20]: 0.181 nM

Second part, the binder after the results:

Selectivity over C1s (human MASP-2 [1]): > 5000 fold
Human C3 Assay IC50, 90% human serum (human MASP-2 [2]): 12 nM
Human C4 assay IC50, 90% human serum (human MASP-2 [2]): 30 nM
Inhibition of Rat C3b IC50 [4]: 200 nM
B2: MoAb #3 (OMS643), 17N16m_d17N9 IgG4 (mutant, S228P) (antibody)
heavy: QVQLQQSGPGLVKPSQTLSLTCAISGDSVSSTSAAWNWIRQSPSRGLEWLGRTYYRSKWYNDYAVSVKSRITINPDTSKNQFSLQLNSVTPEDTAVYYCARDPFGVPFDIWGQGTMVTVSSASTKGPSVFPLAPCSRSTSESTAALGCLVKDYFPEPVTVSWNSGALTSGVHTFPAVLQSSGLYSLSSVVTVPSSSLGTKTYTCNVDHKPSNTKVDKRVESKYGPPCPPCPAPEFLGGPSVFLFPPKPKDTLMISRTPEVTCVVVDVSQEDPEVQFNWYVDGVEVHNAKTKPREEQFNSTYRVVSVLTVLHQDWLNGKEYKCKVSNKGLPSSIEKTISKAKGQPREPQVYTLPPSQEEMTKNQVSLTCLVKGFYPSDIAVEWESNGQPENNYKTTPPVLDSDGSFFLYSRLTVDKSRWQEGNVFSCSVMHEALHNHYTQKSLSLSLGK
light: SYELIQPPSVSVAPGQTATITCAGDNLGKKRVHWYQQRPGQAPVLVIYDDSDRPSGIPDRFSASNSGNTATLTITRGEAGDEADYYCQVWDIATDHVVFGGGTKLTVLGQPKAAPSVTLFPPSSEELQANKATLVCLISDFYPGAVTVAWKADSSPVKAGVETTTPSKQSNNKYAASSYLSLTPEQWKSHRSYSCQVTHEGSTVEKTVAPTECS
notes: also called MoAb#3 (IgG4 mutant)

Functional IC50, C3b deposition, human serum Exp #1 (human MASP-2 [5]): 157 nM
Functional IC50, C3b deposition, human serum Exp #2 (human MASP-2 [5]): 39.9 nM
Functional IC50, C3b deposition, human serum Exp #3 (human MASP-2 [5]): 24.1 nM
Functional IC50, C3b deposition, human serum Exp #4 (human MASP-2 [5]): 23.7 nM
Functional IC50, C3b deposition, non-human primate serum Exp #1 [6]: 94.8 nM
Functional IC50, C3b deposition, non-human primate serum Exp #2 [6]: 71.8 nM
Functional IC50, C3b deposition, rat serum Exp #1 [7]: 434 nM
C3 Assay IC50 in dilute serum (1%), human serum Exp #1 (human MASP-2 [8]): 24 nM
C3 Assay IC50 in dilute serum (1%), human serum Exp #2 (human MASP-2 [8]): 24 nM
C3 Assay IC50 in dilute serum (1%), human serum Exp #3 (human MASP-2 [8]): 40 nM
C3 Assay IC50 in dilute serum (1%), human serum mean (human MASP-2 [8]): 29 nM
C3 Assay IC50, non-human primate serum Exp #1 [9]: 94 nM
C3 Assay IC50, non-human primate serum Exp #2 [9]: 74 nM
C3 Assay IC50, non-human primate serum mean [9]: 84 nM
Kd (human MASP-2 [10]): 1.9 nM
1% human serum C3 assay IC50 (human MASP-2 [11]): 38 nM
Inhibitory activity in Human Serum IC50 (C3b deposition, 0.5% human serum) (human MASP-2 [12]): 157 nM
C3 convertase assay using 1% human serum, IC50 (first experiment) (human MASP-2 [13]): 98.3 nM
C3 convertase assay using 1% human serum, IC50 (second experiment) (human MASP-2 [13]): 151 nM
EC50 (read off the curve) [14]: ~2 nM
Kd [15]: 0.76 nM
Kd [16]: 11.3 nM
B3: scFv mother clone 17D20 (scFv)
scFv: QVTLKESGPVLVKPTETLTLTCTVSGFSLSRGKMGVSWIRQPPGKALEWLAHIFSSDEKSYRTSLKSRLTISKDTSKNQVVLTMTNMDPVDTATYYCARIRAGGIDYWGQGTLVTVSSKLSGSASAPKLEEGEFSEARVQPVLTQPPSVSVSPGQTASITCSGDKLGDKFAYWYQQKPGHSPVLVIYQDNKRPSGIPGRFSGSNSGNTATLTISGTQAMDEADYYCQAWDSSTAVFGTGTKVTVLAAAGSEQKLISEEDLNSHHHHHH
notes: also called 17D20 (17P10); 17D20mc

Kd [17]: 0.0284 nM
C4b deposition in 90% human serum, IC50 relative to the C3b deposition assay (human MASP-2 [18]): ~3 fold
C3b deposition assay in 1% human serum, IC50 (human MASP-2 [19]): 11 nM and 27 nM
B4: 17D20 mother clone, IgG4 hinge mutant (S228P) format (antibody, V domains shown)
VH: QVTLKESGPVLVKPTETLTLTCTVSGFSLSRGKMGVSWIRQPPGKALEWLAHIFSSDEKSYRTSLKSRLTISKDTSKNQVVLTMTNMDPVDTATYYCARIRAGGIDYWGQGTLVTVSS
VL: QPVLTQPPSVSVSPGQTASITCSGDKLGDKFAYWYQQKPGHSPVLVIYQDNKRPSGIPGRFSGSNSGNTATLTISGTQAMDEADYYCQAWDSSTAVFGTGTKVTVLA
notes: IgG4 S228P; also called 17D20 IgG4 mutated format; 17D20 IgG4 S228P
